Measurements taken from publication PMC11783875.

Key:
[1] = target: E69QE173Q-PsbS (Arabidopsis thaliana); experiment: cross-linking; isolated thylakoids (60 ug Chl) in the dark-adapted state; 0.1 mM DTSSP for 1 min in reaction buffer pH 8.0; SDS-PAGE and western blot with PsbS antibody; densitometry of dimer against total PsbS
[2] = target: E69QE173Q-PsbS (Arabidopsis thaliana); experiment: cross-linking; isolated thylakoids (60 ug Chl) in the light state (700 umol photons m^-2 s^-1); 0.1 mM DTSSP for 1 min in reaction buffer pH 8.0; SDS-PAGE and western blot with PsbS antibody; densitometry of dimer against total PsbS
[3] = target: E69QE173Q-PsbS (Arabidopsis thaliana); experiment: cross-linking; isolated thylakoids (60 ug Chl) in the recovery-1 state (darkness after illumination); 0.1 mM DTSSP for 1 min in reaction buffer pH 8.0; SDS-PAGE and western blot with PsbS antibody; densitometry of dimer against total PsbS
[4] = target: E69QE173Q-PsbS (Arabidopsis thaliana); experiment: cross-linking; isolated thylakoids (60 ug Chl) in the recovery-2 state (darkness after illumination); 0.1 mM DTSSP for 1 min in reaction buffer pH 8.0; SDS-PAGE and western blot with PsbS antibody; densitometry of dimer against total PsbS
[5] = target: H3-PsbS (PsbS with the H3 motif I74, Y75, E76 deleted) (Arabidopsis thaliana) (UniProt Q9XF91); experiment: cross-linking; isolated thylakoids (60 ug Chl) in the light state (700 umol photons m^-2 s^-1); 0.1 mM DTSSP for 1 min in reaction buffer pH 8.0; SDS-PAGE and western blot with PsbS antibody; densitometry of dimer against total PsbS
[6] = target: H3-PsbS (PsbS with the H3 motif I74, Y75, E76 deleted) (Arabidopsis thaliana) (UniProt Q9XF91); experiment: cross-linking; isolated thylakoids (60 ug Chl) in the recovery-2 state (darkness after illumination); 0.1 mM DTSSP for 1 min in reaction buffer pH 8.0; SDS-PAGE and western blot with PsbS antibody; densitometry of dimer against total PsbS
[7] = target: T1, PsbS protein (wild type, Arabidopsis thaliana) (Arabidopsis thaliana (endogenous in wild-type thylakoids)), Q9XF91; experiment: cross-linking; isolated thylakoids (60 ug Chl) in the dark-adapted state; 0.1 mM DTSSP for 1 min in reaction buffer pH 8.0; SDS-PAGE and western blot with PsbS antibody; densitometry of dimer against total PsbS; settings: remark: other sources report otherwise
T1 chain: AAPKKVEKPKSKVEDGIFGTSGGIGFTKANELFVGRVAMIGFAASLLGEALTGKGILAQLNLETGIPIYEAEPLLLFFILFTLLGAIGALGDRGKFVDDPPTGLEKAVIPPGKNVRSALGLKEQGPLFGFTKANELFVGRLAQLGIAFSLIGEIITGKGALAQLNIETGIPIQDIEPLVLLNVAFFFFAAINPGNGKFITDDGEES

[8] = target: T1, PsbS protein (wild type, Arabidopsis …); experiment: cross-linking; isolated thylakoids (60 ug Chl) in the light state (700 umol photons m^-2 s^-1); 0.1 mM DTSSP for 1 min in reaction buffer pH 8.0; SDS-PAGE and western blot with PsbS antibody; densitometry of dimer against total PsbS; settings: remark: other sources report otherwise
[9] = target: T1, PsbS protein (wild type, Arabidopsis …); experiment: cross-linking; isolated thylakoids (60 ug Chl) in the recovery-1 state (darkness after illumination); 0.1 mM DTSSP for 1 min in reaction buffer pH 8.0; SDS-PAGE and western blot with PsbS antibody; densitometry of dimer against total PsbS; settings: remark: other sources report otherwise
[10] = target: T1, PsbS protein (wild type, Arabidopsis …); experiment: cross-linking; isolated thylakoids (60 ug Chl) in the recovery-2 state (darkness after illumination); 0.1 mM DTSSP for 1 min in reaction buffer pH 8.0; SDS-PAGE and western blot with PsbS antibody; densitometry of dimer against total PsbS; settings: remark: other sources report otherwise

Molecule: E69QE173Q-PsbS (natural protein)
- cross-linked PsbS dimer content relative to total PsbS [1]: 21.7%
- cross-linked PsbS dimer content relative to total PsbS [2]: 18.6%
- cross-linked PsbS dimer content relative to total PsbS [3]: 21.4%
- cross-linked PsbS dimer content relative to total PsbS [4]: 25.6%

Molecule: H3-PsbS (PsbS with the H3 motif I74, Y75, E76 deleted) (from UniProt Q9XF91 60-265) (natural protein)
- dimer-to-monomer transition, percent lower than the WT (% lower than WT) [5]: 50.8
- total recovery to PsbS dimers, percent of the WT level (% of the WT level) [6]: 62.6

B1: PsbS protein (wild type, Arabidopsis thaliana), Q9XF91 60-265 (natural protein)
chain: T1 chain
- cross-linked PsbS dimer content relative to total PsbS [7]: 44.9%
- cross-linked PsbS dimer content relative to total PsbS [8]: 31.7%
- cross-linked PsbS dimer content relative to total PsbS [9]: 39.5%
- cross-linked PsbS dimer content relative to total PsbS [10]: 50.4%
